Reference: the DeepSol protein solubility set

Test: soluble on expression in E. coli; label from the status in PepcDB or PDB records
With “MTYETISVRMNRSDRNIRWGFSVRQQADGLIIDRVEAESLSDKAGVKHNDKVDQINGRSTRGLDAASANRLIDDSFNEVRLSLQRFVTSHTTLPWTLNEKDNKMVVEEMKPGFGTGFGSGFGSSNFVNSSFNQNQNNFGSHFGTGSGVNQRNITNTNTSSSNHQSSTFHSSSHQSSGNYGSGGFSPSSHHNIPIRHSPAPPFTTSNSSYNNIKKSTDNTILPGSANYNPNNSSNYNSVPTGFGASSGGYGGSGGFKGHSNGSAIPAQAPPTSYSYNNGATSQPYGAGSGGTPLNQMTFINTSPAPGANGAYGAQCGLSPSKVFYHSPSGRSRNELSPGAAVHHLQYNSPMNLYSSEATAEQLYQQTGAVPEGPVPHDKSPAYLTSETRKLIEEEARGRFQRGKSPSSQSSCFKRISHAVGADH” the “soluble on expression in E. coli” value was “not soluble”. With “MAHHHHHHMNRIPAATRNAPMYATAMSQFAVCRQPWNEYISLLTKDDAQPFHTTPQEKPAYRGRKRGREGWLFGQQVQLHYHRFPDEQLFTNLTRWRMGDTVGDVAIQQFRNAQPFDIEDKDPQGFQRPAPEVYMKLNYKNPATISRFLTRTGHMYPQDIMPLNPEAVVKLRVAKAQAIRIGLYPRFGNPFWFRSQSFRPKAYQENYDPTTYSTKHTMEHFAYNWVQTDRIRQYFKGLEELHQSRRATASSGGGGVTSEHKQQSQLYALDNMSIEMHRNAPSYRADVERSIKKPTVPGLMSTKGMKKKFHNLYSSTSTKRMGFSNPTLGIKKV” the “soluble on expression in E. coli” value was “not soluble”. With “MTRPKLELSDDEWRQKLTPQEFHVLRRAGTERPFTGEYTDTTTAGIYQCRACGAELFRSTEKFESHCGWPSFFDPKSSDAVTLRPDHSLGMTRTEVLCANCDSHLGHVFAGEGYPTPTDKRYCINSISLRLVPGSV” the “soluble on expression in E. coli” value was “soluble”. For “MAHHHHHHMRILHKLGKNVFQTARRSFSLVTKQAHDFTAQGLNKNNEIINVQLSSYIGKKYCCLLFYPLNYTFVCPTEIIEFNKHVKSFEEKNVELLGISVDSVYSHLAWKNMPIEKGGIGNVNFTLVSDLNKEISKMYNVLYENSFALRGLFIIDLQGKVRHQTVNDLPLGRSVDEVLRTIDSIIHVDKTGDVCPINWKKGAKSFQPTNDSLLNYLNTEVKKE”, the “soluble on expression in E. coli” value was “soluble”. In the case of “MGSDKIHHHHHHIEGPGTTENLKEFVTVDGKKDTQSGAFYLTTVGIRSATIFSAIKANFSDFQEVMSKKELMGDSSNSEYNRIQQYYMDSSKNAAIEQALKLAKVPYEMKFKGVYVLAMEDNSSFKGKIEVGDTVTGVDGKSFKSSEELMNYIKAQKVNQKVTVQFIQDGKAKEATGKLIELPTDKKAGIGIGLTDHTEIDSSIPVSIEAGDIGGPSAGLMFTLQTYEQLSHKDLRKGHEIAGTGTMNSQGIVGRIGGIDKKVVTASENGAEIFFAPDDEITSEMKKVEPKIKSNYQEAQEAAKKIGTKMKIVPVKTVQDALNYLEKLK”, the “soluble on expression in E. coli” value is reported as “not soluble”. With “MTEEVGQKLLESLSLFKLGDIGYARIECELLTTFLEEQLENNLDSLSIHELSTNLIRNRICCREFIESRPAKKWVFLIFRLARTLFRDKTRIATFHSVNLHSEFVQVFWRNLTYQTKSYRNCKFQTFQFIASRFLRSEHDWNVTVVNCLNVTQKLIDNGENARKFVDCNLEDAVLVLLATRQMTVLQHSLEILGRLSDWSTTCRENLLCISLLRILSCEEQAREQIRIYDGVPTLLGLLSIKNSRLQWHVAWTLAQLAEQHETSLEIAQLGGISLIFAAISNPKPPGKAVGDWVAMLTGLTALLAQLAQASSNQQLMSNANGVYILGKLLAIKKNVTTDETIDSWDLLQCSIFRVLRLMYTFERSRQLLKKVLPTEIFEKFVDVGNYNSVLTDYDQIAKMYDNLIEENIEIMKDWETVNERRQAVGEVGEYELLDQLGAGAFGCVYTVRKKAQSHSENPAKLLALKEIFMTNLNDRESDKSFGDMISEVKIIKQQLRHPNIVRYRRIFVENHRLYIVMDLIQGCSLRDLIITMKEKKGNFEEKKIWAMVVQMMLALRYLHKEKQIVHRDLKPNNIMMTTDERVVITDFGLAKQKGPEYLKSAAGTIIYSCPEIVQNLPYGEKADIWSFGCCIYEMCQLQPVFHSTNMLTLAMQIVEAKYDPLNEMWSDDLRFLITSCLAPDPSARPDILKVSGMCGVRLLEYLDDVARQQASTSDMTASQSSYNIKIDESPSSLNSSTSSYKRPGRSSKTSGSGKLPPINPAPRRNHSMSAGETPRPSSIVCLPRITDKYSVMFPSAPSAIPSRRRVQTCSTEHPARSSSSTELKVSKQSDGLTVSSNVLRQIQDPVLTILNQIHRILVVTDKETISTSMNHQRRLVEMFRKNLLGRENDAVQMKTHLRKLAAESPEEIQMNLGFSDFRPVLVQSHINGYQKDQKVTKITYEQLSACIECLIAENPAAK” the “soluble on expression in E. coli” value was “soluble”. In the case of “MGSDKIHHHHHHMSIELIDLHPAPADLKQLVQSGFKCQPRQLPAWVLYDAKGSRLFAQICEQPEYGLTRTEIKLLEENAPAIAKAVGDGVIVEFGIGNARKVSPLLNAIRPSTFVALDISQAALKDSLTRLASTYPMVSILGICCDHSSMQALPPHPRLEGVRCIGFFPGSSLGNFTPKEAVAVLRRFRKLLGGGPLLLGLDQPRDPIQLEAAYNDEAGISAAFARNLLHRLNRELEADFRPDQFSYRARWQEEFHRIEMALVSRCSQTIVIDNSTWSFSAGEPLITEYSVKYNPQEAARLAEKAGWRINQRWHDSADSLSLHLLEPSD”, the “soluble on expression in E. coli” value is reported as “not soluble”. With “MGSDKIHHHHHHMMPMDWEITFKGITYECINCAYCCSCKGWRIYLNYFDRLKLKDYEYAIEPCEGEFKYRLKVNEKGCVLLNNNLCRIHLEKGYEFKPLMCMIFPFSCMIKWDGTPLLIIKHYCSGIKKGKISKKVVNEAIELIKELYFDMFEEIIENGMEHSSKTEIFENFRVDWEEREDFGRYIFSSKTFDEMFERCREIFGNKINKLNLEEIDEIKNNLQRYNTKENEEEILRYLLELNRREHFRKLPFYREVNKLINIGNYLTKYKNVFKGEGEVDKKLFLNLK” the “soluble on expression in E. coli” value was “not soluble”. In the case of “MSLLKADGMAKKQTLLVGERLVWDKLTLLGFLEKNHIPQKLYYNLSSQDKELSAEIQSNVTYYTLRDANNTLIQALIPISQDLQIHIYKKGEDYFLDFIPIVFTRKERTLLLSLQTSPYQDIVKATNDPLLANQLMNAYKKSVPFKRLVKNDKIAIVYTRDYRVGQAFGQPTIKMAMVSSRLHQYYLFSHSNGRYYDSKAQEVAGFLLETPVKYTRISSPFSYGRFHPVLKVKRPHYGVDYAAKHGSLIHSASDGRVGFIGVKAGYGKVVEIHLNELRLVYAHMSAFANGLKKGSFVKKGQIIGRVGSTGLSTGPHLHFGVYKNSRPINPLGYIRTAKSKLHGKQREVFLEKAQYSKQKLEELFKTHSFEKNSFYLLEGFEGHHHHHH”, the “soluble on expression in E. coli” value is reported as “soluble”. With “GMTESDRDQEASMREVVIVKSTPQRGKFNAFAELVGKLVSETRDFPGCLGAYLMLAPERNEQVVMHIWETPDALEAYLTWRADRGDFLEINEYLEVEQDFKTYQLA” the “soluble on expression in E. coli” value was “soluble”. In the case of “NTIEKEERIKIAVLTEQNQKNRIADYQDREEIYERQRRKMHDYKNQLSTIQTLIKNGHTDEALSFTQKLTESIAVEMSAINTNHPVVNAILNQKYRSMQEKHIAVILKVGDLQEICLEEEEIVILLSNLLDNAIRESEKVLKNTGKAVIHLKLECEDHKLIFAVRNPVTEKVEIENDTIKSKRGDHHGIGLLNVKAVVDKYGGDMVLSCDENEFKAVVIL”, the “soluble on expression in E. coli” value is reported as “not soluble”. For “GPGSMSKLISDAIAAEDASKWNTSYELYPPRSEKAEEDMMKVLVPNFMHQSPVFLDLTWGAGGRTSGTTMRLCKDLQHAHPDTPINMHITCTNTPKGLIKETLEFAKTHGIRNILALRGDPPSGEEFQVDPDGFACARDLVRYIRDTYGDYFCVSVAGYPEGHPSRIAENGTISHEDHQKELEYLKEKVDAGASFIITQLFYDASLYVKFVKRCREVGITVPILAGLLPITTYAGFVRMVSLCKTSVPSDVKKRVEELKENPDGLKEYGVEQCVQMIECIRASGLDYHHLHFYTLNNSAQIFKILKRLNALVE”, the “soluble on expression in E. coli” value was “soluble”. For “SLNILFDIGHPKDVNVFKNVIWKLQERGHEIKIVARAKENTKRVLEEYGFEYEVCKYYKTMSGKALGIITNDIHLYNIAKKFQPDIFVSPGSPYSAHVSRLLRKPHIAFSDTEIAGLVMKLTFPFTDKIYTSSSFYLDLGPKQIRFNGYYELAYLHSNYFTPNRDVLKKYNLDEGYIILRLSALSSHHDIGAKGFTFSSEEELIDFIRELERYGRVIVSSETKQWKTISDYELKFKPGDLHDLLYYSKMCIGEGATMASEAAILGVPAIYVSNTHRGYLDELETYELAFTIQEREEALKKAKSLLEEDSLVKNSKEKREKLLKEKTDVVEFMVNAIEGSYKL”, the “soluble on expression in E. coli” value was “soluble”. With “MSLSLLSKFSRGVPSPALAHIAKRTFSSVNFSQILRRPQNSSLRLRLVRNISNSNPLPKMTEAGKNIVLKRHDLIVKGAQDAREYRGLELTNGIRVLLVSDPTTDKSAAALDVKVGHLMDPWELPGLAHFCEHMLFLGTAKYPSENEYSKFLAAHAGSSNAYTSSDHTNYHFDVKPDQLPGALDRFVQFFLSPQFTESATEREVCAVDSEHSNNLNNDLWRFLQVDRSRSKPGHDYGKFGTGNKQTLLEDARKKGIEPRDALLQFHKKWYSSDIMTCCIVGKEPLNVLESYLGTLEFDAIENKKVERKVWEEFPYGPDQLAKRIDVVPIKDTRLVSISFPFPDLNGEFLSQPGHYISHLIGHEGPGSLLSELKRLGWVSSLQSDSHTQAAGFGVYNVTMDLSTEGLEHVDEIIQLMFNYIGMLQSAGPKQWVHDELAELSAVKFRFKDKEQPMTMAINVAASLQYIPFEHILSSRYLLTKYEPERIKELLSMLSPANMQVRVVSQKFKGQEGNTNEPVYGTEMKVTDISPETMKKYENALKTSHHALHLPEKNEYIATNFDQKPRESVKNEHPRLISDDGWSRVWFKQDDEYNMPKQETKLALTTPMVAQNPRMSLLSSLWLWCLSDTLAEETYNADLAGLKCQLESSPFGVQMRVSNRREAERHASLTLHVYGYDEKQALFAKHLANRMTNFKIDKTRFDVLFESLKRALTNHAFSQPYLLTQHYNQLLIVDKVWSKEQLLAVCDSVTLEDVQGFAKEMLQAFHMELFVHGNSTEKEAIQLSKELMDVLKSAAPNSRPLYRNEHNPRRELQLNNGDEYVYRHLQKTHDVGCVEVTYQIGVQNTYDNAVVGLIDQLIREPAFNTLRTNEALGYIVWTGSRLNCGTVALNVIVQGPKSVDHVLERIEVFLESVRKEIAEMPQEEFDNQVSGMIARLEEKPKTLSSRFRRFWNEIECRQYNFARREEEVALLKTIKKDDVLELFDKKIRKDAAERRKLAVFVHGKNEDQEAVNTIIKKNAESGKKEKEVLYSDQLRQFLPLYGRPIAAIDLKPIGVDPLEHQETTKSKY” the “soluble on expression in E. coli” value was “not soluble”. For “MKIEKINENKIKVTISIDDLLERNIDLDTLNYNTPAAQELFWDMMEQAEIQFGFDASDSQICVEAIPDPEEGFVIIITKLDEDGEFESIHKYIKNRFRKSDLRVRKRNSRVSSSIVIYFFNNFEDLCSVCQKLRDIYSGESTLYRLKGVYYLVLTKNSWSVANLRSFEPILSEFGTKVSNVSFYEGYLNEHGEKIIEYNAVETINDYFHR”, the “soluble on expression in E. coli” value was “soluble”. With “SGRFSIKAKNYFLTYPKCDLTKENALSQITNLQTPTNKLFIKICRELHENGEPHLHILIQFEGKYNCTNQRFFDLVSPTRSAHFHPNIQGAKSSSDVKSYIDKDGDVLEWGTFQIDGR” the “soluble on expression in E. coli” value was “soluble”. In the case of “MTYRIVLKSDPEKRFKNIRACKDEPMQMVVRNINNGADYVHPEQDVEVFSVKTANNNDLVCVKCTPDSYSSNPAVAEQVVLFCQPNSSDLGGFLQPNSMNFVTYANVFETDLYAFDYSGYGFSSGTQGEKNVYADVRAVYEKILEMRPDKKIVVMGYSIGTTAAVDLAATNPDRLAGVVLIAPFTSGLRLFSSKPDKPDTCWADSFKSFDKINNIDTRVLICHGDVDEVIPLSHGLALYEKLKNPVPPLIVHGANHHTILSGKYIHVFTRIANFLRNETLVSCRSAEVDSSQQQQQLSSKRTENE”, the “soluble on expression in E. coli” value is reported as “not soluble”.
